Drawing on paper PMC12419008, this text covers Kd for three substances.

What is called Kd is the constant that tells how readily two partners part at equilibrium. High values mean weaker binding, low ones tighter binding.

Targets include FcγRI (human) (UniProt P12314); FcγRIIIa (F158) (human) (UniProt P08637); FcγRIIIa (V158) (human); FcγRIIa (H131) (human) (UniProt P12318); FcγRIIa (R131) (human); FcγRIIb (human) (UniProt P31994).
Common to all, as to assay: SPR
Experiment [1] concerns the target APG777 (human (humanized IgG1)).

Sequence of UniProt P12314 (P12314 16-292): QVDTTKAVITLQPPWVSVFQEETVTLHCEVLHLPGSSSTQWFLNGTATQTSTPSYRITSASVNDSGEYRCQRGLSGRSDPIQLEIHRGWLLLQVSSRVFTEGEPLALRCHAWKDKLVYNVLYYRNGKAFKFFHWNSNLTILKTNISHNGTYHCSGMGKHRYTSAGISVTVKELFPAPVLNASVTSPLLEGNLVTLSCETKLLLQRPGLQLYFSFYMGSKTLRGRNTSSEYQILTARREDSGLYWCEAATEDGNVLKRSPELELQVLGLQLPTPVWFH
Sequence of FcγRIIIa (V158) (human) (P08637 17-208): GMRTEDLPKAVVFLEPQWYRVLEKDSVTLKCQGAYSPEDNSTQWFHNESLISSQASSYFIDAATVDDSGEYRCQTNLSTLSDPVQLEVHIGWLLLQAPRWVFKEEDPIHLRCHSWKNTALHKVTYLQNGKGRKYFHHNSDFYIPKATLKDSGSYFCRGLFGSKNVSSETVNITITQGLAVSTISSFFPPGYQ
Sequence of UniProt P31994 (P31994 43-217): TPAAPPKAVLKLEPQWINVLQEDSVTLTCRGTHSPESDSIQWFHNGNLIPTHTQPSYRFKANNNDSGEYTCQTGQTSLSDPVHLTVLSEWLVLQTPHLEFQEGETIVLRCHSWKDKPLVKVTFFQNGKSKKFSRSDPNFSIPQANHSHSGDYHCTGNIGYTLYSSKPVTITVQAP
Sequence of FcγRIIa (R131) (human) (P12318 34-217): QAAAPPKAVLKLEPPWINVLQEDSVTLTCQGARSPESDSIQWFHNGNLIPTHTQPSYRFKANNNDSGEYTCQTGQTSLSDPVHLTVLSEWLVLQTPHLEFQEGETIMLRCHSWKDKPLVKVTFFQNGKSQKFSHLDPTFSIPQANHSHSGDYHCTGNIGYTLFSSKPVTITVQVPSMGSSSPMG

Regarding APG777 (antibody), the Kd came to 7.88 µM in the experiment with FcγRI (human), 56.2 µM in the experiment with FcγRIIIa (F158) (human) and 12.1 µM with FcγRIIIa (V158) (human).

In experiment [1], “human neonatal Fc receptor (huFcRn) (from UniProt P55899 24-365)” displayed a Kd of 0.0944 µM.

In the case of rituximab (antibody), the Kd in the experiment with FcγRIIIa (F158) (human) is 0.957 µM; with FcγRIIIa (V158) (human), 0.193 µM; in the experiment with FcγRIIa (H131) (human), 2.93 µM; with FcγRIIa (R131) (human), 5.95 µM; in the experiment with FcγRIIb (human) it was 15.3 µM.
